# Laboratory results reported in PMC2995471, “Identification of amino acid residues in protein SRP72 required for binding to a kinked 5e motif of the human signal recognition particle RNA”.
# Residue numbers refer to the chain shown, from its start.
# T1: 72h del 555-KK-556 (human, UniProt O76094 531-590, del555-556)
# T1 sequence: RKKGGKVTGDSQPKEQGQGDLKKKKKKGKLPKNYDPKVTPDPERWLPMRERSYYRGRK
# T2: 72h P579A (human, UniProt O76094 531-590, P579A)
# T2 sequence: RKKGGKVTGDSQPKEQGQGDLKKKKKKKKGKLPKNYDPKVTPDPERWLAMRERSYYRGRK
# T3: 72h 585-YY-586 to AA (human, UniProt O76094 531-590, Y585A;Y586A)
# T3 sequence: T2 sequence with A49P, Y55A, Y56A
# T4: 72h 581-RE-582 to AA (human, UniProt O76094 531-590, R581A;E582A)
# T4 sequence: T2 sequence with A49P, R51A, E52A
# T5: 72h M580A (human, UniProt O76094 531-590, M580A)
# T5 sequence: T2 sequence with A49P, M50A
# T6: 72h 579-PM-580 to AA (human, UniProt O76094 531-590, P579A;M580A)
# T6 sequence: T2 sequence with M50A
# T7: 72h 589-RK-590 to AA (human, UniProt O76094 531-590, R589A;K590A)
# T7 sequence: T2 sequence with A49P, R59A, K60A
# T8: 72h 587-RG-588 to AA (human, UniProt O76094 531-590, R587A;G588A)
# T8 sequence: T2 sequence with A49P, R57A, G58A
# T9: 72h 577-WL-578 to AA (human, UniProt O76094 531-590, W577A;L578A)
# T9 sequence: T2 sequence with W47A, L48A, A49P
# T10: 72h (human, UniProt O76094 531-590)
# T10 sequence: T2 sequence with A49P
# T11: 72h 583-RS-584 to AA (human, UniProt O76094 531-590, R583A;S584A)
# T11 sequence: T2 sequence with A49P, R53A, S54A
# T12: 72e (human, UniProt O76094 531-617)
# T12 sequence: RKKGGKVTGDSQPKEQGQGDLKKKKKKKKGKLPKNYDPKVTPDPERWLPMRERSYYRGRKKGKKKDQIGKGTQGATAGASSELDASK
# T13: 72g (human, UniProt O76094 531-585)
# T13 sequence: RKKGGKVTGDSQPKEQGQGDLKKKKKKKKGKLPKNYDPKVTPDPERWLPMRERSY
# T14: 72f (human, UniProt O76094 531-587)
# T14 sequence: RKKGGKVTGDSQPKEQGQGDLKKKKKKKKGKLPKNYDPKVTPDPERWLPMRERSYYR
# T15: 72j (human, UniProt O76094 541-590)
# T15 chain: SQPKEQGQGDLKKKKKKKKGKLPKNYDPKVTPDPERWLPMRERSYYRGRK
# T16: 72k (human, UniProt O76094 545-590)
# T16 chain: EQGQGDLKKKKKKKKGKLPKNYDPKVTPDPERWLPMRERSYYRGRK
# B1: 5e SRP RNA (structured_RNA)
# RNA: GGUCCGGGUGUCCGCACUAGGGAGCUAGUGGGAUCGCGCCUGGAUC
# Assays:
# Test in all cases: Ni-NTA magnetic bead pull-down; EMSA: 50 mM Tris-HCl pH 7.9, 300 mM KOAc, 5 mM MgCl2, 16% glycerol, 10 min 37 C; bead pull-down: 82.5 ng 5e RNA, 0.056-1.8 uM protein, eluted with 250 mM imidazole (binding buffer not given, as in ref 16)
# 72h del 555-KK-556 = target: T1, 72h del 555-KK-556; conditions: protein: recombinant; tags: His6; hairpin with 11-nt 5e internal motif (K-turn)
# 72h P579A = target: T2, 72h P579A; conditions: protein: recombinant; tags: His6; hairpin with 11-nt 5e internal motif (K-turn)
# 72h 585-YY-586 to AA = target: T3, 72h 585-YY-586 to AA; conditions: protein: recombinant; tags: His6; hairpin with 11-nt 5e internal motif (K-turn)
# 72h 581-RE-582 to AA = target: T4, 72h 581-RE-582 to AA; conditions: protein: recombinant; tags: His6; hairpin with 11-nt 5e internal motif (K-turn)
# 72h M580A = target: T5, 72h M580A; conditions: protein: recombinant; tags: His6; hairpin with 11-nt 5e internal motif (K-turn)
# 72h 579-PM-580 to AA = target: T6, 72h 579-PM-580 to AA; conditions: protein: recombinant; tags: His6; hairpin with 11-nt 5e internal motif (K-turn)
# 72h 589-RK-590 to AA = target: T7, 72h 589-RK-590 to AA; conditions: protein: recombinant; tags: His6; hairpin with 11-nt 5e internal motif (K-turn)
# 72h 587-RG-588 to AA = target: T8, 72h 587-RG-588 to AA; conditions: protein: recombinant; tags: His6; hairpin with 11-nt 5e internal motif (K-turn)
# 72h 577-WL-578 to AA = target: T9, 72h 577-WL-578 to AA; conditions: protein: recombinant; tags: His6; hairpin with 11-nt 5e internal motif (K-turn)
# 72h = target: T10, 72h; conditions: protein: recombinant; tags: His6; hairpin with 11-nt 5e internal motif (K-turn)
# 72h 583-RS-584 to AA = target: T11, 72h 583-RS-584 to AA; conditions: protein: recombinant; tags: His6; hairpin with 11-nt 5e internal motif (K-turn)
# 72e = target: T12, 72e; conditions: protein: recombinant; tags: N-terminal His6; hairpin with 11-nt 5e internal motif (K-turn)
# 72g = target: T13, 72g; conditions: protein: recombinant; tags: N-terminal His6; hairpin with 11-nt 5e internal motif (K-turn)
# 72f = target: T14, 72f; conditions: protein: recombinant; tags: N-terminal His6; hairpin with 11-nt 5e internal motif (K-turn)
# 72j = target: T15, 72j; conditions: protein: recombinant; tags: His6; hairpin with 11-nt 5e internal motif (K-turn)
# 72k = target: T16, 72k; conditions: protein: recombinant; tags: His6; hairpin with 11-nt 5e internal motif (K-turn)
binder,measurement,setting,value
B1,binding signal,72h del 555-KK-556,46 ± 12 % of wild-type binding
same,binding signal,72h P579A,26 ± 1 % of wild-type binding
same,binding signal,72h 585-YY-586 to AA,60 ± 3 % of wild-type binding
same,binding signal,72h 581-RE-582 to AA,69 ± 14 % of wild-type binding
same,binding signal,72h M580A,100 ± 4 % of wild-type binding
same,binding signal,72h 579-PM-580 to AA,14 ± 9 % of wild-type binding
same,binding result,72h 589-RK-590 to AA,binds
same,binding result,72h 587-RG-588 to AA,binds
same,binding result,72h 577-WL-578 to AA,no binding
same,binding result,72h,binds
same,binding result,72h 583-RS-584 to AA,no binding
same,binding result,72e,binds
same,binding result,72g,no binding
same,binding result,72f,binds
same,binding result,72j,binds
same,binding result,72k,binds
